Experimental data from IntAct's records for PubMed 16785445.

B1: Interferon-induced, double-stranded RNA-activated protein kinase (Homo sapiens), P19525 (parent)
chain: MAGDLSAGFFMEELNTYRQKQGVVLKYQELPNSGPPHDRRFTFQVIIDGREFPEGEGRSKKEAKNAAAKLAVEILNKEKKAVSPLLLTTTNSSEGLSMGNYIGLINRIAQKKRLTVNYEQCASGVHGPEGFHYKCKMGQKEYSIGTGSTKQEAKQLAAKLAYLQILSEETSVKSDYLSSGSFATTCESQSNSLVTSTLASESSSEGDFSADTSEINSNSDSLNSSSLLMNGLRNNQRKAKRSLAPRFDLPDMKETKYTVDKRFGMDFKEIELIGSGGFGQVFKAKHRIDGKTYVIKRVKYNNEKAEREVKALAKLDHVNIVHYNGCWDGFDYDPETSDDSLESSDYDPENSKNSSRSKTKCLFIQMEFCDKGTLEQWIEKRRGEKLDKVLALELFEQITKGVDYIHSKKLIHRDLKPSNIFLVDTKQVKIGDFGLVTSLKNDGKRTRSKGTLRYMSPEQISSQDYGKEVDLYALGLILAELLHVCDTAFETSKFFTDLRDGIISDIFDKKEKTLLQKLLSKKPEDRPNTSEILRTLTVWKKSPEKNERHTC
partner: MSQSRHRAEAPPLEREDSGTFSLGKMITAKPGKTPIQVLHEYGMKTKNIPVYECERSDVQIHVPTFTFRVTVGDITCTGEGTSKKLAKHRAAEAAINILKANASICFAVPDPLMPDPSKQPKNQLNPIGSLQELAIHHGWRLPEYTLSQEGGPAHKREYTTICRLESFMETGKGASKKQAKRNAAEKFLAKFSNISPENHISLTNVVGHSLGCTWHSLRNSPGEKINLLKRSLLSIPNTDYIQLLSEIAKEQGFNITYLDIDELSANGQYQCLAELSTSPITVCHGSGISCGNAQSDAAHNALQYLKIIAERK

Variants of: B1
Settings: with PRKRA

Row | Variant | effect of a mutation on the interaction
1 | Y332A | disrupting interaction strength
2 | D333A | disrupting interaction strength
3 | D328A | disrupting interaction strength
4 | G329A | disrupting interaction strength
5 | D331A | disrupting interaction strength
